Key:
[1] = target: apCC-Hex-LLIA; assay: crystal structure
[2] = target: apCC-Hex-LLIA; assay: AUC

## apCC-Hex-LLIA (peptide)
[1]
  stoichiometry N: 6
[2]
  stoichiometry N: 6

Source: doi:10.1101/2023.08.25.554789
